Source: patent EP4676952A2 (dated 2026)

Key:
[1] = molecular target: T1, human C2b (small fragment of C2) (human, UniProt P06681); experiment: ELISA
T1 chain: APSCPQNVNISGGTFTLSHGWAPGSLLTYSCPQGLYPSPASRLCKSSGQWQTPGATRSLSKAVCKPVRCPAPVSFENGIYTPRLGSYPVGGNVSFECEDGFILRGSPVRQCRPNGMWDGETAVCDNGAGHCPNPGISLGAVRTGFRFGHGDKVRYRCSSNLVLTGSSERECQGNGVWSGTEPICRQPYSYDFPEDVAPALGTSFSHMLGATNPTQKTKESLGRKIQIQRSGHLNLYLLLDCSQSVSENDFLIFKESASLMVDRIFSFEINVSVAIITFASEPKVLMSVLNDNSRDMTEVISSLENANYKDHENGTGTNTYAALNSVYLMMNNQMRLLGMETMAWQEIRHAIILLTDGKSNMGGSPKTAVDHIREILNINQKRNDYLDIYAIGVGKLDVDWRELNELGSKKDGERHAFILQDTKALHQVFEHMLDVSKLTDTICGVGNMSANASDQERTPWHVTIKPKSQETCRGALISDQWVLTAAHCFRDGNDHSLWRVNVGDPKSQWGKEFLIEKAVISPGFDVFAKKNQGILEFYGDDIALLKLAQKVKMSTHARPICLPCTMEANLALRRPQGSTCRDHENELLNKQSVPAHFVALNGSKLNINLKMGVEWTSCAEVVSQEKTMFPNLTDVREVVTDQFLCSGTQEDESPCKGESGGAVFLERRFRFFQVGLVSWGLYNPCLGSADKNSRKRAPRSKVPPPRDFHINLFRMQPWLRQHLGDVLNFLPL

[2] = molecular target: T2, human complement component 2 (C2), purified protein (human, UniProt P06681 21-752); experiment: cell-based or functional assay
T2 sequence (looked up): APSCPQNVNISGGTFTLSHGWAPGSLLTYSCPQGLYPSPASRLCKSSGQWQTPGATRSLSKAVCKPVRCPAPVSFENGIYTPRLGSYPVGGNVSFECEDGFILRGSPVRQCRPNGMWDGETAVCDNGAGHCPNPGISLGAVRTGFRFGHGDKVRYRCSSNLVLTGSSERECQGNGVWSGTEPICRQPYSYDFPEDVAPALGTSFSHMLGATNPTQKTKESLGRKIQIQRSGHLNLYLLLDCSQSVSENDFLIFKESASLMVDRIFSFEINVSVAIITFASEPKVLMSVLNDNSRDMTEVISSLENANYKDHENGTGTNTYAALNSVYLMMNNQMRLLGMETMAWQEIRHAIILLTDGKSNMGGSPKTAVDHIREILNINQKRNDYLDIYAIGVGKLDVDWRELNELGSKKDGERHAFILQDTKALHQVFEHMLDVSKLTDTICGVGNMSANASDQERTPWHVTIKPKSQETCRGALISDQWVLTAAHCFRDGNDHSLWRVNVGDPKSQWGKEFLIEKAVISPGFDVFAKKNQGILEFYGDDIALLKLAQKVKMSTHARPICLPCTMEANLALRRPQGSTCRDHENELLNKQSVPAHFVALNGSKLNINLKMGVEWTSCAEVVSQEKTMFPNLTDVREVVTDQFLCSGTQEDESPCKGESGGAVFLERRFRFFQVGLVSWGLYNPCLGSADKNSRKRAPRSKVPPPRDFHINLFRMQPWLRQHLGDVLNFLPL

[3] = molecular target: T3, C2b fragment of human C2 (human, UniProt P06681 21-243); experiment: pull-down of C1s-cleaved C2 with His-tagged nanobody on cobalt resin, western blot with goat anti-C2 polyclonal antibody
T3 construct: domain: C2b; also called smaller fragment C2b
T3 sequence (looked up): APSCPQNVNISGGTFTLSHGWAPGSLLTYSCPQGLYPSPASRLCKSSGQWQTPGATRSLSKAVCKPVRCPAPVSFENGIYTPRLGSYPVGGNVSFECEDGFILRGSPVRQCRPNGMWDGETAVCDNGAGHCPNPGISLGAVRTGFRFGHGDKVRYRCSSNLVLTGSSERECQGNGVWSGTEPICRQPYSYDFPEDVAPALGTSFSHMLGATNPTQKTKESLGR

[4] = molecular target: T2, human complement component 2 (C2), …; experiment: SPR, Biacore T200, nanobody immobilised on a CM5 chip, human C2 2.97 to 248 nM as analyte, 1:1 Langmuir model

B1: Clone 1B10 C2 nanobody (Nab1B10), monovalent, His-tagged (VHH)
VHH: QVQLQESGGGLVQAGGSLRLSCAASGHTFRSYYMGWFRQAPGKEREFVASISWTGGSTEYADSVKGRFTISRDNAKNTVYLQMNSLKPEDTAAYYCAADYSGDFLLSDLDSWGQGTQVTVSS
notes: Alpaca VHH expressed in E. coli BL21 from the pMES4 vector; single 15 kDa band on SDS-PAGE; also called NablBlO; Nabl BIO; not shown: His tag (monovalent form is 'His-tagged', purified on cobalt resin)
binding result [1]: no binding | MicroVue CH50 Eq EIA (C5b-9 generation, classical pathway, normal human serum), EC50 [2]: 53 nM | classical complement pathway-mediated hemolytic assay (EShA, normal human serum), IC50 [2]: ~3 nM | binding result [3]: no binding | Kd [4]: 3.03 nM | koff [4]: 0.000395 s⁻¹ | kon [4]: 131000 M⁻¹ s⁻¹
